Read-outs that look alike come from different tables or passages of the source. Marks after values point to notes of the source that are not given here.
Legend:
[1] = rat, in vivo
Method: The fusion protein GLP2-2G-XTEN_AE864 was evaluated for its pharmacokinetic properties in Wistar rats following SC administration of two different dosage levels. Prior to the experiment, catheters were surgically implanted into the jugular vein of female Wistar rats. The catheterized animals were randomized into two groups containing three rats each. The fusion protein GLP2-2G-XTEN (lot AP510) was administered to each rat via SC injection as follows: 1) Low Dose 2 mg/kg (25 nmol/kg); or 2) High Dose 16 mg/kg (200 nmol/kg). Blood samples (˜0.2 mL) were collected through the jugular vein catheter from each rat into prechilled heparinized tubes at pre-dose, 0.08, 4, 8, 24, 48, 72, 96, 120 and 168 hours after test compound administration (10 time points). Blood was processed into plasma by centrifugation, split into two aliquots for analysis by ELISA. The samples were analyzed for fusion protein concentration, performed by both anti-XTEN/anti-XTEN sandwich ELISA (AS1602) and anti-GLP2/anti-XTEN sandwich ELISA (AS1705) and the results were analyzed using WinNonLin to obtain the PK parameters. Terminal half life was fit from 48 to 168 hours.

[2] = set-up: species or system human
Text: The cumulative results of the PK analyses were used to perform allometric scaling of GLP2-2G_AE864 terminal half-life, clearance and volume of distribution using data from three species (mouse, rat and monkey). Pharmacokinetic values for a 70 kg human were predicted by extrapolating the log linear relationship between body weight and each pharmacokinetic parameter, as shown in FIG. 17. […] The terminal half-life in humans can also be estimated using the predicted values for clearance (Cl) and volume of distribution (Vd) as 0.693×Vd/Cl.

[3] = mouse, in vivo
Method: The fusion protein GLP2-2G-XTEN_AE864 was evaluated for its pharmacokinetic properties in C57Bl/6 mice following subcutaneous (SC) administration. Female C57Bl/6 mice were injected SC with 2 mg/kg (25 nmol/kg) of the GLP2-2G-XTEN (lot AP498A) at 0.25 mg/mL (8 mL/kg). Three mice were sacrificed at each of the following time points: Predose, 0.08, 4, 8, 24, 48, 72, 96 and 120 hours post-dose. Blood samples were collected from the mice and placed into prechilled heparinized tubes at each interval and were separated by centrifugation to recover the plasma. The samples were analyzed for fusion protein concentration, performed by both anti-XTEN/anti-XTEN sandwich ELISA (AS1405) and anti-GLP2/anti-XTEN sandwich ELISA (AS1717), and the results were analyzed using WinNonLin to obtain the PK parameters.

[4] = Analytical size exclusion HPLC of GLP2-2G-XTEN (apparent molecular weight); format: physicochemical
Method: Gel filtration analysis was performed using a Phenomenex BioSep-SEC-s4000 (7.8 mm×600 mm) column. 20 μg or AP690 GLP2-2G-XTEN fusion protein were analyzed at a flowrate of 0.5 ml/min with 50 mM Phosphate pH 6.5, 300 mM NaCl mobile phase. Elution was monitored using OD215 nm. Column calibration was performed using a size exclusion check standard from Phenomenex, with the following markers: thyroglobulin (670 kDa), IgG (156 kDa), BSA (66 kDa) and ovalbumin ([…]). The result (FIG. 11B) indicated an apparent molecular weight of 1002 kDa for the fusion protein of 83.1 kDa actual weight, for an apparent molecular weight factor of […].

[5] = tested on: indomethacin-induced intestinal inflammation in Wistar rats; test: Rat Crohn's Disease indomethacin-induced intestinal inflammation model, Study 3; format: in vivo
Method: Study 3: A third indomethacin-induced inflammation study was performed to verify previous results and test additional dose regimens. Intestinal inflammation was induced in male Wistar rats (Harlan Sprague Dawley) using indomethacin administered on Days 0 and 1 of the experiment according to Table 21.
All treatments were administered per the schedule starting on Day-3 of the experiment. Body weights were determined daily. On Day 2 (24 hours post-2nd indomethacin dose), the animals were prepped for sacrifice and analysis. The small intestines were removed and the length of each was recorded. Quantitative histopathology was performed on a subset of samples. Rat small intestine samples consisted of a 3 cm section of proximal jejunum and a 3 cm section of mid-jejunum collected 15 cm and 30 cm from the pylorus, respectively. Samples were fixed in 10% neutral buffered formalin. Samples were trimmed into multiple sections without bias toward lesion presence or absence. These sections were placed in cassettes, embedded in paraffin, microtomed at approximately 4 microns thickness, and stained with hematoxylin and eosin (H&E). The slides were evaluated microscopically by a board certified veterinary pathologist and scored for villous height as well as infiltration/inflammation, mucosal atrophy, villi/crypt appearance, abscesses/ulceration. A 1 to 4 severity grading scale was used, where 1=minimal, 2=mild, 3=moderate, 4=marked/severe, reflecting the combination of the cellular reactions seen histopathologically. Small intestine length was analyzed with an ANOVA model with a Tukey/Kramer post-hoc test for pairwise comparisons, with significance at p=0.05. Non-parametric histology score variables were compared with the vehicle control using a Mann Whitney U test with a Bonferroni correction for the p-value to create an overall alpha of 0.05.

B1: GLP2-2G-XTEN_AE864: fusion protein of GLP-2 with glycine at position 2 linked at the C-terminus to XTEN AE864; sequence of FIG. 28 (SEQ ID NO: 798) (protein)
chain: HGDGSFSDEMNTILDNLAARDFINWLIQTKITDGGSPAGSPTSTEEGTSESATPESGPGTSTEPSEGSAPGSPAGSPTSTEEGTSTEPSEGSAPGTSTEPSEGSAPGTSESATPESGPGSEPATSGSETPGSEPATSGSETPGSPAGSPTSTEEGTSESATPESGPGTSTEPSEGSAPGTSTEPSEGSAPGSPAGSPTSTEEGTSTEPSEGSAPGTSTEPSEGSAPGTSESATPESGPGTSTEPSEGSAPGTSESATPESGPGSEPATSGSETPGTSTEPSEGSAPGTSTEPSEGSAPGTSESATPESGPGTSESATPESGPGSPAGSPTSTEEGTSESATPESGPGSEPATSGSETPGTSESATPESGPGTSTEPSEGSAPGTSTEPSEGSAPGTSTEPSEGSAPGTSTEPSEGSAPGTSTEPSEGSAPGTSTEPSEGSAPGSPAGSPTSTEEGTSTEPSEGSAPGTSESATPESGPGSEPATSGSETPGTSESATPESGPGSEPATSGSETPGTSESATPESGPGTSTEPSEGSAPGTSESATPESGPGSPAGSPTSTEEGSPAGSPTSTEEGSPAGSPTSTEEGTSESATPESGPGTSTEPSEGSAPGTSESATPESGPGSEPATSGSETPGTSESATPESGPGSEPATSGSETPGTSESATPESGPGTSTEPSEGSAPGSPAGSPTSTEEGTSESATPESGPGSEPATSGSETPGTSESATPESGPGSPAGSPTSTEEGSPAGSPTSTEEGTSTEPSEGSAPGTSESATPESGPGTSESATPESGPGTSESATPESGPGSEPATSGSETPGSEPATSGSETPGSPAGSPTSTEEGTSTEPSEGSAPGTSTEPSEGSAPGSEPATSGSETPGTSESATPESGPGTSTEPSEGSAPG
Cl [1]: 0.80 mL/h
T ½ [1]: 43.6 h
Vd [1]: 0.21 L/kg
terminal half-life ([1]; sc): 37.5 to 49.7 h
AUCInf ([1]; sc, 2 mg/kg): 530 µg·h/mL
Vz ([1]; sc, 2 mg/kg): 43.4 mL
Cl [2]: 17* ml/hr
T ½ [2]: 240* hr
Vd [2]: 91* mL/kg
Cl [3]: 0.07 mL/h
T ½ [3]: 33.9 h
Vd [3]: 0.14 L/kg
apparent molecular weight ([4]; SEC, BioSep-SEC-s4000, 50 mM Phosphate pH 6.5, 300 mM NaCl, lot AP690): 1002 kDa
apparent molecular weight factor ([4]; apparent vs 83.1 kDa actual weight): 12.5
small intestine length ([5]; compared to vehicle-treated diseased rats, FIG. 24A): increase in small intestine length
efficacy by regimen compared with peptide ([5]; dosed once at 75 nmol/kg or three times at 25 nmol/kg): as effective as GLP2-2G peptide dosed ten times at 12.5 nmol/kg
villi height ([5]; fusion protein high (total dose 125 nmol/kg) and low (total dose 75 nmol/kg), FIG. 24B): significant increase in villi height
mucosal atrophy score ([5]; high and low dose, vs vehicle-treated diseased rats, FIG. 24C): significantly lower mucosal atrophy score
efficacy in improving indomethacin-induced small intestine damage (histopathology) ([5]; rat, in vivo): as good or better than GLP2-2G peptide
mucosal ulceration and mixed cell infiltrate ([5]; three treatment groups): not significant

From patent US20250388643A1, “GLUCAGON-LIKE PEPTIDE-2 COMPOSITIONS AND METHODS OF MAKING AND USING SAME” (Amunix Pharmaceuticals, Inc., priority 2011, published 2025)
